Key:
[1] = molecular target: T1, FOS^MUT3AA-mDHFR_B; experiment: cell-based or functional assay
T1 chain: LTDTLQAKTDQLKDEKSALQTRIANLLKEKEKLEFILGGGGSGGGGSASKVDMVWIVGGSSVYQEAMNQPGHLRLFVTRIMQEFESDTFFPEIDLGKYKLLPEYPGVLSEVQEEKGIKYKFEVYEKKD

[2] = molecular target: T2, FOS^MUT4AA-mDHFR_B; experiment: cell-based or functional assay
T2 chain: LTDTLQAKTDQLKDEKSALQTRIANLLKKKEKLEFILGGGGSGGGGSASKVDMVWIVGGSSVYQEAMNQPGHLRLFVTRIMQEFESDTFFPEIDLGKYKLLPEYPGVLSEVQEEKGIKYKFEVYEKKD

[3] = molecular target: T3, sFOS-mDHFR_B (murine); experiment: cell-based or functional assay
T3 chain: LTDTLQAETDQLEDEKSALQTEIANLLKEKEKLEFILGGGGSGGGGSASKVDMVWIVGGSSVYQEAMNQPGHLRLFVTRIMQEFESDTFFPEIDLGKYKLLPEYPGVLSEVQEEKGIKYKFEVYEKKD

[4] = molecular target: T4, sFOS^MUT8AA-mDHFR_B; experiment: cell-based or functional assay
T4 chain: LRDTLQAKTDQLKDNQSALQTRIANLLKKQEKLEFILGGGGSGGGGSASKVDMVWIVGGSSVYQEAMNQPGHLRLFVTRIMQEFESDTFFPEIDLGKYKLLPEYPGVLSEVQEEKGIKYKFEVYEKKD

[5] = molecular target: T5, FOS-mDHFRmt_B-2A; experiment: cell-based or functional assay
T5 chain: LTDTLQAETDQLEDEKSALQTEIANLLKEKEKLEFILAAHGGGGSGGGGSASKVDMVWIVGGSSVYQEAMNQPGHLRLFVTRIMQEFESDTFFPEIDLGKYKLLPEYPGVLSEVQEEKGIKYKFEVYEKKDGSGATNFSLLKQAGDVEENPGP

[6] = molecular target: T6, FOS^WT-mDHFR_B; experiment: cell-based or functional assay
T6 chain: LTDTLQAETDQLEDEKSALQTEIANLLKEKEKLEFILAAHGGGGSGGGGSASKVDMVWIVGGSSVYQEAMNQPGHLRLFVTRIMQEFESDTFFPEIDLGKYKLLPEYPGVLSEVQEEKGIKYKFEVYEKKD

[7] = molecular target: T6, FOS^WT-mDHFR_B; experiment: split-DHFR complementation, 100 nM MTX 10 days, FACS
Description: (§1) FIGS. 44A-44D show the results of MTX selection of double engineered BC76 T cells. Activated human primary T cells isolated from a buffy coat, BC76, were double-infected with retroviral vectors encoding an MTX-resistant murine DHFR^FS mutant (mDHFR) split into an N-terminal and C-terminal protein half (vector A and B), fused to heterodimerizing JUN-FOS leucine zippers. JUN^WT depicts a wildtype JUN leucine zipper, FOS^WT depicts a wildtype FOS leucine zipper, JUN^MUT3AA depicts a mutant JUN leucine zipper containing three acidic amino acids from FOS, FOS^MUT3AA depicts a mutant FOS leucine zipper containing three basic amino acids from JUN, JUN^MUT4AA depicts a mutant JUN leucine zipper containing four acidic amino acids from FOS, FOS^MUT4AA depicts a mutant FOS leucine zipper containing four basic amino acids from JUN. Vector A and B also encoded a Ly6G and CD90.2 transduction marker, respectively. Starting at 4 days post transduction, cells were either left untreated (row 1), or were treated with 100 nM MTX for 10 days (row 2), after which enrichment of double transduced cells was measured by FACS analysis.

[8] = molecular target: T7, FOS-mDHFRmt_B; experiment: cell-based or functional assay
T7 chain: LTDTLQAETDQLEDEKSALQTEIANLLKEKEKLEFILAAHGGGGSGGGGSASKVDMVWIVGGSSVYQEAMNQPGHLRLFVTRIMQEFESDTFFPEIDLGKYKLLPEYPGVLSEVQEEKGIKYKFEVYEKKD

[9] = molecular target: T2, FOS^MUT4AA-mDHFR_B; experiment: split-DHFR complementation, 100 nM MTX 10 days, FACS
Description: as §1

## sJUN-mDHFR_A
[1]
  fold enrichment of double transduced T cells (FACS), shorter zippers, donor A, 100 nM MTX 6 days (FIG. 49): 1.7 fold
  fold enrichment of double transduced T cells (FACS), shorter zippers, donor B, 100 nM MTX 6 days (FIG. 49): 1.4 fold
[2]
  fold enrichment of double transduced T cells (FACS), shorter zippers, donor A, 100 nM MTX 6 days (FIG. 50): 1.5 fold
  fold enrichment of double transduced T cells (FACS), shorter zippers, donor B, 100 nM MTX 6 days (FIG. 50): 1.2 fold
[3]
  fold enrichment of double transduced T cells (FACS), 100 nM MTX 6 days (FIGS. 51A-51B): 12.3 fold
  fold enrichment of double transduced T cells (FACS), shorter zippers, donor A, 100 nM MTX 6 days (FIG. 49): 66 fold
  fold enrichment of double transduced T cells (FACS), shorter zippers, donor B, 100 nM MTX 6 days (FIG. 49): 7.6 fold
[4]
  fold enrichment of double transduced T cells (FACS), 100 nM MTX 6 days (FIGS. 51A-51B): 1.5 fold

B1: JUN-mDHFRmt_A-2A (other)
chain: RIARLEEKVKTLKAQNSELASTANMLREQVAQLKQKVMNHGGGGSGGGGSMVRPLNCIVAVSQNMGIGKNGDFPWPPLRNESKYFQRMTTTSSVEGKQNLVIMGRKTWFSIPEKNRPLKDRINIVLSRELKEPPRGAHFLAKSLDDALRLIEQPELGSGATNFSLLKQAGDVEENPGP
[5]
  fold enrichment of double transduced T cells (FACS), BC45, 25 nM MTX 4 days: 5.3 fold
  fold enrichment of double transduced T cells (FACS), BC45, 50 nM MTX 4 days: 10.5 fold
  fold enrichment of double transduced T cells (FACS), BC45, further 100 nM MTX 3 days, row 2: 15.5 fold
  fold enrichment of double transduced T cells (FACS), BC45, further 100 nM MTX 3 days, row 3: 18.9 fold
  fold enrichment of double transduced T cells (FACS), BC46, 25 nM MTX 4 days: 3.6 fold
  fold enrichment of double transduced T cells (FACS), BC46, 50 nM MTX 4 days: 8.3 fold
  fold enrichment of double transduced T cells (FACS), BC46, further 100 nM MTX 3 days, row 2: 10.4 fold
  fold enrichment of double transduced T cells (FACS), BC46, further 100 nM MTX 3 days, row 3: 16.9 fold

B2: JUN^MUT3AA-mDHFR_A (other)
chain: RIARLEEEVKTLEAQNSELASTANMLEEQVAQLKQKVGGGGSGGGGSMVRPLNCIVAVSQNMGIGKNGDFPWPPLRNESKYFQRMTTTSSVEGKQNLVIMGRKTWFSIPEKNRPLKDRINIVLSRELKEPPRGAHFLAKSLDDALRLIEQPEL
[6]
  fold enrichment of double transduced T cells (FACS), BC54, 100 nM MTX 2 days: 3.9 fold
  fold enrichment of double transduced T cells (FACS), BC76, 100 nM MTX 10 days: 19 fold
  fold enrichment of double transduced T cells (FACS), donor B, 100 nM MTX 4 days: 11.2 fold
[1]
  fold enrichment of double transduced T cells (FACS), BC54, 100 nM MTX 2 days: 5.6 fold
  fold enrichment of double transduced T cells (FACS), BC76, 100 nM MTX 10 days: 72 fold
  fold enrichment of double transduced T cells (FACS), donor B, 100 nM MTX 4 days: 10.5 fold
  fold enrichment of double transduced T cells (FACS), shorter zippers, donor A, 100 nM MTX 6 days (FIG. 49): 49 fold
  fold enrichment of double transduced T cells (FACS), shorter zippers, donor B, 100 nM MTX 6 days (FIG. 49): 6.6 fold
[3]
  fold enrichment of double transduced T cells (FACS), shorter zippers, donor A, 100 nM MTX 6 days (FIG. 49): 3.2 fold
  fold enrichment of double transduced T cells (FACS), shorter zippers, donor B, 100 nM MTX 6 days (FIG. 49): 1.5 fold

B3: sJUN^MUT8AA-mDHFR_A (other)
chain: TIARLEEEVKTLEAKESELASTANMLEEKVAQLEQKVGGGGSGGGGSMVRPLNCIVAVSQNMGIGKNGDFPWPPLRNESKYFQRMTTTSSVEGKQNLVIMGRKTWFSIPEKNRPLKDRINIVLSRELKEPPRGAHFLAKSLDDALRLIEQPEL
[3]
  fold enrichment of double transduced T cells (FACS), 100 nM MTX 6 days (FIGS. 51A-51B): 0.9 fold
[4]
  fold enrichment of double transduced T cells (FACS), 100 nM MTX 6 days (FIGS. 51A-51B): 2.2 fold

B4: JUN^MUT4AA-mDHFR_A (other)
chain: RIARLEEEVKTLEAQNSELASTANMLEEQVAQLEQKVGGGGSGGGGSMVRPLNCIVAVSQNMGIGKNGDFPWPPLRNESKYFQRMTTTSSVEGKQNLVIMGRKTWFSIPEKNRPLKDRINIVLSRELKEPPRGAHFLAKSLDDALRLIEQPEL
[6]
  fold enrichment of double transduced T cells (FACS), BC76, 100 nM MTX 10 days: 2.6 fold
[2]
  fold enrichment of double knock-in T cells (FACS), BC78, 100 nM MTX 6 days: 54 fold
  fold enrichment of double transduced T cells (FACS), BC76, 100 nM MTX 10 days: 70 fold
  fold enrichment of double transduced T cells (FACS), shorter zippers, donor A, 100 nM MTX 6 days (FIG. 50): 39 fold
  fold enrichment of double transduced T cells (FACS), shorter zippers, donor B, 100 nM MTX 6 days (FIG. 50): 4.7 fold
[3]
  fold enrichment of double transduced T cells (FACS), shorter zippers, donor A, 100 nM MTX 6 days (FIG. 50): 2.2 fold
  fold enrichment of double transduced T cells (FACS), shorter zippers, donor B, 100 nM MTX 6 days (FIG. 50): 1.5 fold
[7]
  binding result: no binding

B5: JUN-mDHFRmt_A (other)
chain: RIARLEEKVKTLKAQNSELASTANMLREQVAQLKQKVMNHGGGGSGGGGSMVRPLNCIVAVSQNMGIGKNGDFPWPPLRNESKYFQRMTTTSSVEGKQNLVIMGRKTWFSIPEKNRPLKDRINIVLSRELKEPPRGAHFLAKSLDDALRLIEQPEL
[8]
  fold enrichment of double transduced T cells (FACS), BC45, 50 nM MTX 4 days: 4.4 fold
  fold enrichment of double transduced T cells (FACS), BC45, further 100 nM MTX 3 days, row 2: 11.3 fold
  fold enrichment of double transduced T cells (FACS), BC45, further 100 nM MTX 3 days, row 3: 94 fold
  fold enrichment of double transduced T cells (FACS), BC46, 50 nM MTX 4 days: 6.2 fold
  fold enrichment of double transduced T cells (FACS), BC46, further 100 nM MTX 3 days, row 2: 4 fold
  fold enrichment of double transduced T cells (FACS), BC46, further 100 nM MTX 3 days, row 3: 23.2 fold

B6: JUN^WT-mDHFR_A (other)
chain: RIARLEEKVKTLKAQNSELASTANMLREQVAQLKQKVMNHGGGGSGGGGSMVRPLNCIVAVSQNMGIGKNGDFPWPPLRNESKYFQRMTTTSSVEGKQNLVIMGRKTWFSIPEKNRPLKDRINIVLSRELKEPPRGAHFLAKSLDDALRLIEQPEL
[6]
  fold enrichment of double transduced T cells (FACS), BC54, 100 nM MTX 2 days: 6.8 fold
  fold enrichment of double transduced T cells (FACS), BC76, 100 nM MTX 10 days: 132 fold
  fold enrichment of double transduced T cells (FACS), donor B, 100 nM MTX 4 days: 15.5 fold
[1]
  fold enrichment of double transduced T cells (FACS), BC54, 100 nM MTX 2 days: 1.9 fold
  fold enrichment of double transduced T cells (FACS), BC76, 100 nM MTX 10 days: 3.1 fold
  fold enrichment of double transduced T cells (FACS), donor B, 100 nM MTX 4 days: 4 fold
[2]
  fold enrichment of double transduced T cells (FACS), BC76, 100 nM MTX 10 days: 1.4 fold
[9]
  binding result: no binding
